Assay results taken from paper PMC8100066 (2021).

Target: mouse CSL (amino acid residues 53-474), conserved and structurally ordered core domain (mouse, UniProt P31266 53-474)
Experiment: ITC

mouse CSL (amino acid residues 53-474), conserved and structurally ordered core domain, sequence (P31266 53-474): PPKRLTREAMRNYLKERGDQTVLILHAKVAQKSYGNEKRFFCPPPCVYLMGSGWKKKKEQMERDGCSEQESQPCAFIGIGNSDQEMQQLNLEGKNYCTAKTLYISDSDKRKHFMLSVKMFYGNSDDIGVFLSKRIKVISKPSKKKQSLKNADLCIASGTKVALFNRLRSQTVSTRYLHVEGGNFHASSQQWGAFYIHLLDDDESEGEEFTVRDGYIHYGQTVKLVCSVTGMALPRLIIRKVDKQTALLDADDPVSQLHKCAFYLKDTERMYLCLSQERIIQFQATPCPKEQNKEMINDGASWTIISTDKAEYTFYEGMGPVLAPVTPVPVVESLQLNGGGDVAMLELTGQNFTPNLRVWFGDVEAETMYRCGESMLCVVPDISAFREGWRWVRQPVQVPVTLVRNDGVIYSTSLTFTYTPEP

Row | Binder | Ka
1 | ARRKREHSTLWFPEGFKV [human NOTCH3 RAM peptide (residues 1665-1682), nonphosphorylated] | 5.49e+06 M⁻¹
2 | VLLSRKRRRQHGQLWFPEGFKVSEASKK [human NOTCH1 RAM peptide (residues 1754-1781)] | 4.63e+07 M⁻¹
